# Data published in US20260250651, “CAS12 PROTEINS AND USES THEREOF” (GUANGZHOU REFORGENE MEDICINE CO., LTD., published 2026).
# Residue numbers refer to the chain shown, from its start.
# T1: Cas12i-111 (N295R,N260R,G705R,L332R)
# T1 chain: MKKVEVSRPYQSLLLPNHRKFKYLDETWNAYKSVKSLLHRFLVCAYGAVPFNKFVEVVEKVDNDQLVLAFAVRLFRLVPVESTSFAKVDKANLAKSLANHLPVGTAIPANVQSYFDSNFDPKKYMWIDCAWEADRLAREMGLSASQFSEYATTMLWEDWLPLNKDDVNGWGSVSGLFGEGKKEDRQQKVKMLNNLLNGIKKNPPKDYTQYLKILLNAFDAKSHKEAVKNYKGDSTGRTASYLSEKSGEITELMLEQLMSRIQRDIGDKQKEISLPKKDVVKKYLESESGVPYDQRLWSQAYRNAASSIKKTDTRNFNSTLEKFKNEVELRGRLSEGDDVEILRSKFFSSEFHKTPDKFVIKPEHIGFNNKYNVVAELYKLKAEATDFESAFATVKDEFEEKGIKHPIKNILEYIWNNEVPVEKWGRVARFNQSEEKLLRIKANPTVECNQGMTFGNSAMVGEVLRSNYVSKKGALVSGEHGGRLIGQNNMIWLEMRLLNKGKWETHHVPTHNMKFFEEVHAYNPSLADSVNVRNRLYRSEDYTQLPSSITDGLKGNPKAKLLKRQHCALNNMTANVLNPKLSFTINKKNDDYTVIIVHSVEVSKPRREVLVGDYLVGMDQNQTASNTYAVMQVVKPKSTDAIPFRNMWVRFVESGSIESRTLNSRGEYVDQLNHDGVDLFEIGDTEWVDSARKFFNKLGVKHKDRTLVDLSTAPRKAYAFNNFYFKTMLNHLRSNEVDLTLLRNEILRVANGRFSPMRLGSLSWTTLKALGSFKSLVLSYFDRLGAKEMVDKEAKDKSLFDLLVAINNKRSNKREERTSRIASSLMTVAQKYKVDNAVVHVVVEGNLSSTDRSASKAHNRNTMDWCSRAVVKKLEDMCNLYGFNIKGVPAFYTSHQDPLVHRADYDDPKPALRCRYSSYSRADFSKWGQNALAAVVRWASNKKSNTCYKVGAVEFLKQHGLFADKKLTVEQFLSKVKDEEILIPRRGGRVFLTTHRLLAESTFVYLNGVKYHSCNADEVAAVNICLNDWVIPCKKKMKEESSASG
# T2: Cas12i-133 (N295R,N260R,G705R,Q971E)
# T2 chain: T1 chain with R332L, Q971E
# B1: gRNA-HBB ; HBB target (ssRNA ; dsDNA)
# RNA: AGAGAAUGUGUGCAUAGUCACACUAUGCAGAAAUAUUGCUAUUGCCU
# DNA 1: TATGCAGAAATATTGCTATTGCCT
# DNA 2: AGGCAATAGCAATATTTCTGCATA
# B2: gRNA-HBG ; HBG target (ssRNA ; dsDNA)
# RNA: AGAGAAUGUGUGCAUAGUCACACACAAGGCAAACUUGACCAAU
# DNA 1: ACAAGGCAAACTTGACCAAT
# DNA 2: ATTGGTCAAGTTTGCCTTGT
# B3: gRNA-TTR ; TTR target (ssRNA ; dsDNA)
# RNA: AGAGAAUGUGUGCAUAGUCACACCAGUAAGAUUUGGUGUCUAU
# DNA 1: CAGTAAGATTTGGTGTCTAT
# DNA 2: ATAGACACCAAATCTTACTG
# Target: T1, Cas12i-111
# Experiment: cell_activity; 293T indels
# Experimental: (§1) Plating: The 293T cell line was plated when the confluence reached 70-80%, and the number of cells seeded in a 24-well plate was 5*10\hat{ }5 cells/well.
# (§2) Transfection: After 12-14 hours of plating, transfection was performed. 100 μl of Opti-MEM, 1.5 μl of PEI (Yisheng Bio, Polyethylenimine Linear (PEI) MW25000), 250 ng of the mutant clone plasmid from Example 2, and 250 ng of gRNA plasmid for targeting endogenous genes were added to each well of a 24-well plate. The mixture was incubated at room temperature for 20 minutes and then added to 293T cells for transfection. After transfection overnight, the medium was replaced with fresh medium and cultured for the next period.
# (§3) DNA extraction, PCR amplification, and Sanger sequencing: After culturing for 72 hours, cells were washed with PBS, and then 100 μl of cell lysis buffer (Viagen, DirectPCR® Lysis Reagent (Cell)) was added for lysis to obtain a lysate containing genomic DNA. The genomic DNA was amplified in the region near the target sequence, and the PCR product was sent to a sequencing company for Sanger sequencing.
row,Binder,relative indel editing efficiency
1,B1,1.01 fold of Cas12i-69
2,B2,1.53 fold of wild type
3,B3,3.91 fold of wild type

# Target: T2, Cas12i-133
# Experiment: cell_activity; 293T indels
# Experimental: as §1, §2, §3
row,Binder,relative indel editing efficiency
1,B1,0.78 fold of Cas12i-69
2,B2,1.57 fold of wild type
3,B3,4.95 fold of wild type
